The values that follow come from patent publication US20240376455.

Common to all, as to assay: cleavage_in_vitro
Series [1] has as its system T1, LPG10146 (Bifidobacterium thermacidophilum).
T1 sequence: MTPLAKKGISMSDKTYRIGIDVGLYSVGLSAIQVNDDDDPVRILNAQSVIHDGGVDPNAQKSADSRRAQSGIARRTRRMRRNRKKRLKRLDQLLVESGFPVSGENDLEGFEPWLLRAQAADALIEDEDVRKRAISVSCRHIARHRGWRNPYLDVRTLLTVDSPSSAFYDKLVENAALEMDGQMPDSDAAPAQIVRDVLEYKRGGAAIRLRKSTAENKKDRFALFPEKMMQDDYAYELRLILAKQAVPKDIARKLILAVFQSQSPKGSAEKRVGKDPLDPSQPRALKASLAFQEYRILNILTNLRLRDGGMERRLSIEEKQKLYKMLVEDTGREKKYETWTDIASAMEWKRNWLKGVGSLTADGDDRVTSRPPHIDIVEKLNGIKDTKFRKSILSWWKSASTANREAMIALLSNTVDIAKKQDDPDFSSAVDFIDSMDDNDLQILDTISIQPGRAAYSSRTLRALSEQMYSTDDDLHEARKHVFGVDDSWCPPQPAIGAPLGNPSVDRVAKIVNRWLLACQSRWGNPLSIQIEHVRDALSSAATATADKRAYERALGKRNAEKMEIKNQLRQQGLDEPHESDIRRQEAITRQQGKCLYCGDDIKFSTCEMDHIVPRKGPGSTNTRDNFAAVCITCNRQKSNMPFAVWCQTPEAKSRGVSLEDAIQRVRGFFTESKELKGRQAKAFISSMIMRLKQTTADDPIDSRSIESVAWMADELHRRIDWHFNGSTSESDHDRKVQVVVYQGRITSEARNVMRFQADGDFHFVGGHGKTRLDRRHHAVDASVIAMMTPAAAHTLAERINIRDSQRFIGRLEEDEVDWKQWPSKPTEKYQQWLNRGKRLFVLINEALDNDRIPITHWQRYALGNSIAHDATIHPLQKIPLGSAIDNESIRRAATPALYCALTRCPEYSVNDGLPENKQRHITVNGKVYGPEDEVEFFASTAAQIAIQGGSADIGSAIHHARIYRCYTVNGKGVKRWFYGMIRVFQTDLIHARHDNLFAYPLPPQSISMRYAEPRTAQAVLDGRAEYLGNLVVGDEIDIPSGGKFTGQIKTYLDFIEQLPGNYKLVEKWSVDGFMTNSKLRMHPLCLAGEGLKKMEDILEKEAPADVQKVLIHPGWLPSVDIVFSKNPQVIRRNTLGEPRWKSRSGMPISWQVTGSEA
To be noted: PAM SEQ ID 79.

Series [2] relates to T2, LPG10138 (Bacillus megaterium).
T2 sequence: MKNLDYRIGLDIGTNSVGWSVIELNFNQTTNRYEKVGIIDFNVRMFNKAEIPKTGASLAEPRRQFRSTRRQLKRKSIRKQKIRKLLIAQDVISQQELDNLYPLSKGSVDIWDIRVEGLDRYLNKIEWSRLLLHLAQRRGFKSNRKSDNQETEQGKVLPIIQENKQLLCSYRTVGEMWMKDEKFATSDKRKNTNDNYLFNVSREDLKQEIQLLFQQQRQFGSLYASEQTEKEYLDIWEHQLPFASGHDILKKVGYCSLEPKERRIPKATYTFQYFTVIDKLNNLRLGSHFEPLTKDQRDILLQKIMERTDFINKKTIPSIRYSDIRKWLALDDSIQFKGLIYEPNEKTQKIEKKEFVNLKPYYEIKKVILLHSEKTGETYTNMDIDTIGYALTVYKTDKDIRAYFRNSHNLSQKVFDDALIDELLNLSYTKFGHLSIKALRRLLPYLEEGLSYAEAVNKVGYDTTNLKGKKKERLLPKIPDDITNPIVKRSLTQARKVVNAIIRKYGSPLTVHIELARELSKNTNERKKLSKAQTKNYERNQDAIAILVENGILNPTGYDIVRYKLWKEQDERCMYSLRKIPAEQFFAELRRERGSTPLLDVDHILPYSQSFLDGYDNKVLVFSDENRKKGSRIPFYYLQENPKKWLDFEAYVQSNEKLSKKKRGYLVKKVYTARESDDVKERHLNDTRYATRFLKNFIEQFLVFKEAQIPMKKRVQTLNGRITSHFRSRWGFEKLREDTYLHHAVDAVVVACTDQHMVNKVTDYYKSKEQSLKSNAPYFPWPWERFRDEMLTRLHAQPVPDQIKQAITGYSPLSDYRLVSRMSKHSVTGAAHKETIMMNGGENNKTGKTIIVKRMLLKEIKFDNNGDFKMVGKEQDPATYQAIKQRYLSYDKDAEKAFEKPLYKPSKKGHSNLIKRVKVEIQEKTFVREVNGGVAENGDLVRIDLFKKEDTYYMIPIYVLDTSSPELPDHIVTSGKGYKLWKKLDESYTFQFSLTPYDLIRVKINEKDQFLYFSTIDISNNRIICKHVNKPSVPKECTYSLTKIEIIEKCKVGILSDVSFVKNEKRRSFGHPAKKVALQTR

The test system of series [3] is T3, LPG10136 (Bacillus endophyticus).
T3 sequence: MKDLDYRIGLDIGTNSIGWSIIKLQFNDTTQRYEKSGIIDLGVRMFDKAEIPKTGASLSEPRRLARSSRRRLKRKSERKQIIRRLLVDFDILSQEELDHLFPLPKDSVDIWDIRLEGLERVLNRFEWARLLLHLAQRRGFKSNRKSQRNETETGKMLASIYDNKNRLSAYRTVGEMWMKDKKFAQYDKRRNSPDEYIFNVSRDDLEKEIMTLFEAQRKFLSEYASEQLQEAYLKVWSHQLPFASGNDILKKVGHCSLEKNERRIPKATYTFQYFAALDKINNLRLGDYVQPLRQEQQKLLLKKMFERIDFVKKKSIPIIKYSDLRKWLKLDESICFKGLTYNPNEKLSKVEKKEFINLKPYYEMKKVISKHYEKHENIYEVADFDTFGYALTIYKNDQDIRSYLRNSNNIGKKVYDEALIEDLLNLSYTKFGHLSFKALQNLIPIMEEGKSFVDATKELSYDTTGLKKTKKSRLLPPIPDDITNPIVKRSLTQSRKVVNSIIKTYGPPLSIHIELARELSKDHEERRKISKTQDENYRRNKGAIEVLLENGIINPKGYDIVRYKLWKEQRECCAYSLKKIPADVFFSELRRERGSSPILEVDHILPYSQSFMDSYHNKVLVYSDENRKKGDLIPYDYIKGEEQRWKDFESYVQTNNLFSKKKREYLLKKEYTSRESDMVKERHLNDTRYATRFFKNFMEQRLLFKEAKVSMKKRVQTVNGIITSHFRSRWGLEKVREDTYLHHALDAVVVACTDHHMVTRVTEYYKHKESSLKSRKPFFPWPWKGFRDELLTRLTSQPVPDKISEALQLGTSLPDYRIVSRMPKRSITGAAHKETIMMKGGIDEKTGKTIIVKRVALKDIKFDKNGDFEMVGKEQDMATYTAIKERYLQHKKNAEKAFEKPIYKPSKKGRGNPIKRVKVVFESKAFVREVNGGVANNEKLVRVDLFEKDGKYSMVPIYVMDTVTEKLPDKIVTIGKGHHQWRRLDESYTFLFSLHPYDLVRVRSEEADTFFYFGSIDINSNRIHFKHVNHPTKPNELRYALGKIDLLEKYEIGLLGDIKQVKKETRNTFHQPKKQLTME
To be noted: PAM NNNNCC.

For “GCUGAGAAUUAGCAUCCUUCAAAGGAAGAAGCUAAUUCUCAGUAAGUACAGCAAUUAAUAGCUGUAUCUGAAUGCUAAGCGGUUAGCCGCAGGGGAGAGCUUCGGCUCUCCCCGUUCUUUU / GGACAGCAGCTTCCTATATCTCGTACGGATAACC / GGTTATCCGTACGAGATATAGGAAGCTGCTGTCC [LPG10146 sgRNA L1 ; Library 1 target GGATAACC]”, the activity (% target strand cleaved) in series [1] came to 0. For the sequence “GUCAUAGUCCCAUCAUAUCCAUUGCAAAGGCAAUGGAUAUGAUGUUUCUAUGAUAAGGGCUCUCUAAGAGAGACCUGUGGCGUUGGGGAUCGCCUGCCCGUUUCGACGGGUGUCUCCCCAUUU / GGACAGCAGCTTCCTATATCTCGTACAGGACTTC / GAAGTCCTGTACGAGATATAGGAAGCTGCTGTCC [LPG10138 sgRNA L1 ; Library 1 target AGGACTTC]”, in series [2] (PAM SEQ ID 75), the activity (% target strand cleaved) was found to be 5.5. For “GUCAUAGUUCCACUAAAGCCAUUAAAGAAUGGCUUUGAUGUUUCUAUGAUAAGGGUUUCGACCCGUGGCGUUGGGGAUCGCCUGCCCAUUUCGAUGGGCGUCUCCCCAUUU / GGACAGCAGCTTCCTATATCTCGTACAGGACCTC / GAGGTCCTGTACGAGATATAGGAAGCTGCTGTCC [LPG10136 sgRNA L1 ; Library 1 target AGGACCTC]”, the activity (% target strand cleaved) in series [3] (37C 120 min) was found to be 5. In series [2] (PAM context AGGAATTC), “GUCAUAGUCCCAUCAUAUCCAUUGCAAAGGCAAUGGAUAUGAUGUUUCUAUGAUAAGGGCUCUCUAAGAGAGACCUGUGGCGUUGGGGAUCGCCUGCCCGUUUCGACGGGUGUCUCCCCAUUU / GATATAGACGTTGTGGCTGTTGTAGTAGGAATTC / GAATTCCTACTACAACAGCCACAACGTCTATATC [LPG10138 sgRNA L2 ; Library 2 target AGGAATTC]” showed an activity (% target strand cleaved) of 0.

In series [3] (suboptimal PAM context), “GUCAUAGUUCCACUAAAGCCAUUAAAGAAUGGCUUUGAUGUUUCUAUGAUAAGGGUUUCGACCCGUGGCGUUGGGGAUCGCCUGCCCAUUUCGAUGGGCGUCUCCCCAUUU / GATATAGACGTTGTGGCTGTTGTAGTAGGACTTC / GAAGTCCTACTACAACAGCCACAACGTCTATATC [LPG10136 sgRNA L2 ; Library 2 target AGGACTTC]” yielded an activity (% target strand cleaved) of 11.3. Sequence “GCUGAGAAUUAGCAUCCUUCAAAGGAAGAAGCUAAUUCUCAGUAAGUACAGCAAUUAAUAGCUGUAUCUGAAUGCUAAGCGGUUAGCCGCAGGGGAGAGCUUCGGCUCUCCCCGUUCUUUU / GATATAGACGTTGTGGCTGTTGTAGTGAGTAACC / GGTTACTCACTACAACAGCCACAACGTCTATATC [LPG10146 sgRNA L2 ; Library 2 target GAGTAACC]” had an activity (% target strand cleaved) in series [1] of 57.7. “GUCAUAGUUCCACUAAAGCCAUUAAAGAAUGGCUUUGAUGUUUCUAUGAUAAGGGUUUCGACCCGUGGCGUUGGGGAUCGCCUGCCCAUUUCGAUGGGCGUCUCCCCAUUU / GATATAGACGTTGTGGCTGTTGTAGTAGGACCTC / GAGGTCCTACTACAACAGCCACAACGTCTATATC [LPG10136 sgRNA L2 ; Library 2 target AGGACCTC]” came in with an activity (% target strand cleaved) in series [3] (37C 120 min) of 30.9.

With “GUCAUAGUCCCAUCAUAUCCAUUGCAAAGGCAAUGGAUAUGAUGUUUCUAUGAUAAGGGCUCUCUAAGAGAGACCUGUGGCGUUGGGGAUCGCCUGCCCGUUUCGACGGGUGUCUCCCCAUUU / GATATAGACGTTGTGGCTGTTGTAGTAGGACTTC / GAAGTCCTACTACAACAGCCACAACGTCTATATC [LPG10138 sgRNA L2 ; Library 2 target AGGACTTC]”, the activity (% target strand cleaved) in series [2] (PAM SEQ ID 75) was determined as 18. Turning to “GCUGAGAAUUAGCAUCCUUCAAAGGAAGAAGCUAAUUCUCAGUAAGUACAGCAAUUAAUAGCUGUAUCUGAAUGCUAAGCGGUUAGCCGCAGGGGAGAGCUUCGGCUCUCCCCGUUCUUUU / GATATAGACGTTGTGGCTGTTGTAGTAGGAAACC / GGTTTCCTACTACAACAGCCACAACGTCTATATC [LPG10146 sgRNA L2 ; Library 2 target AGGAAACC]”, the activity (% target strand cleaved) in series [1] was 48.9.
